Laboratory results from article PMC2699145 (The Journal of Cell Biology, 2009).

B1: GST-RIL (reversion-induced LIM) (natural protein, human, UniProt P50479 1-330, looked up)
chain: MPHSVTLRGPSPWGFRLVGGRDFSAPLTISRVHAGSKAALAALCPGDLIQAINGESTELMTHLEAQNRIKGCHDHLTLSVSRPEGRSWPSAPDDSKAQAHRIHIDPEIQDGSPTTSRRPSGTGTGPEDGRPSLGSPYGQPPRFPVPHNGSSEATLPAQMSTLHVSPPPSADPARGLPRSRDCRVDLGSEVYRMLREPAEPVAAEPKQSGSFRYLQGMLEAGEGGDWPGPGGPRNLKPTASKLGAPLSGLQGLPECTRCGHGIVGTIVKARDKLYHPECFMCSDCGLNLKQRGYFFLDERLYCESHAKARVKPPEGYDVVAVYPNAKVELV
B2: MBP-tagged RIL (natural protein, human, UniProt P50479 1-330, looked up)
chain: B1 chain
B3: GST fusion protein containing the kinase domain of Src (residues 249-536) (domain or fragment, UniProt P12931 249-536, looked up)
chain: PTSKPQTQGLAKDAWEIPRESLRLEVKLGQGCFGEVWMGTWNGTTRVAIKTLKPGTMSPEAFLQEAQVMKKLRHEKLVQLYAVVSEEPIYIVTEYMSKGSLLDFLKGETGKYLRLPQLVDMAAQIASGMAYVERMNYVHRDLRAANILVGENLVCKVADFGLARLIEDNEYTARQGAKFPIKWTAPEAALYGRFTIKSDVWSFGILLTELTTKGRVPYPGMVNREVLDQVERGYRMPCPPECPESLHDLMCQCWRKEPEERPTFEYLQAFLEDYFTSTEPQYQPGENL

Key:
Experiment in all cases: pull-down
[1] = biological target: maltose-binding protein (MBP)-tagged Src protein (UniProt P12931 1-536)
[2] = biological target: pY419 Src (MBP-Src phosphorylated at Y419) (UniProt P12931 1-536, phosphotyrosine at 419)
GST-tagged Src = GST-tagged Src (UniProt P12931 1-536)
MBP-tagged RIL = biological target: B2

Binder: B1
- binding result [1]: binds
- binding result [2]: binds

Binder: B2
- binding result (GST-tagged Src): binds

Binder: B3
- binding result (MBP-tagged RIL): binds
